Reference: the supplement of paper PMC12764529
± gives the half width of the 95% confidence interval.

Experiments:
[1] = folding stability dG unfold from trypsin proteolysis; higher = more stable
Summary of the method: (§1)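 Mini-proteins designed to be under 80 residues and free of cysteine were carried in a PA-tagged cDNA display construct and digested with trypsin and with chymotrypsin. Each protease was applied at 11 threefold-diluted concentrations, alongside a no-protease condition, before sequencing. K50 came from Bayesian fitting of the sequencing counts, and unfolding free energy was obtained by comparing it with a sequence-predicted unfolded-state K50 and a shared folded-state K50, for each protease separately or for both together. Designs were retained only if their AlphaFold2 dimer inter-PAE exceeded 15.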

[2] = folding stability dG unfold from chymotrypsin proteolysis; higher = more stable
Summary of the method: as §1

[3] = folding stability dG unfold (combined trypsin and chymotrypsin); higher = more stable
Summary of the method: as §1

Row | Sequence | folding stability dG unfold [1] [kcal/mol] | folding stability dG unfold [2] [kcal/mol] | folding stability dG unfold [3] [kcal/mol]
1 | SAGGSAGGSAGGKKTLVIEFDLEPGGLTAEEIEELLRPYTGKEVRLETHPDGKPVAVVEGSAGGSAGGSAGG [r7_330_TrMRF] | -0.488 ± 0.1 | -0.616 ± 0.44 | -0.393 ± 0.16
2 | SAGGSAGGSAGGKKYIIKNKKTNKYIEVDVIEKDGKLYVYDKKTGKVHEVSLKDLEIVPSAGGSAGGSAGGS [r10_28_TrROS_Hall] | 1.84 ± 0.088 | 2.56 ± 0.036 | 2.33 ± 0.089
3 | SAGGSAGGSAGGKLKPGQKVLVIELKVTKVKTKKDGKKEFEFEITRIEIVEVPEGAKILSAGGSAGGSAGGS [r10_826_TrROS_Hall] | 1.78 ± 0.051 | 1.01 ± 0.051 | 1.46 ± 0.14
4 | SAGGSAGGSAGGKLPPGDIIPMEFEAEFPVYKRDPEGGDWEPIGPMRIDFTIIIRLPPGSAGGSAGGSAGGS [r10_1115_TrROS] | 2.5 ± 0.22 | 2.91 ± 0.14 | 2.67 ± 0.22
5 | SAGGSAGGSAGGKMWIMIPKNEPINLPPGFDKVEIMTNPDDGYVMIRVDSPEDFKRLLEASAGGSAGGSAGG [r7_172_TrROS] | 1.405 ± 0.01 | 0.866 ± 0.058 | 1.2 ± 0.065
6 | SAGGSAGGSAGGKPKIEIELTFIDEDGYAYRLRAEIEIDEDGNVHIEVEIEKVPLPEGLSAGGSAGGSAGGS [r10_563_TrROS_Hall] | 2.9 ± 0.14 | 3.28 ± 0.13 | 3.18 ± 0.21
7 | SAGGSAGGSAGGKPKKVILIEADTLEEALAAAEALAPPGAKVTVTLVERDGKLYLLVTVDSAGGSAGGSAGG [r7_877_TrROS_Hall] | 2.16 ± 0.045 | 3.75 ± 0.046 | 3.351 ± 0.028
8 | SAGGSAGGSAGGKPKTVKIIRDKKTNRLLIERDGKVYEFDVDNVEVREVTLEDLKEEELSAGGSAGGSAGGS [r10_512_TrROS_Hall] | 0.576 ± 0.14 | 1.2 ± 0.045 | 0.88 ± 0.14
9 | SAGGSAGGSAGGKPKVIEIEITDKNGKKRKIKLIEKDGYVYLYDEKTGKLVKKFKLKDLSAGGSAGGSAGGS [r10_589_TrROS_Hall] | 3.04 ± 0.097 | 3.92 ± 0.051 | 3.61 ± 0.14
10 | SAGGSAGGSAGGKPKVIVIEGMSLEEIKALLAELPEDVTIVVRLPDGSTRTLTVRLPEPSAGGSAGGSAGGS [r10_514_TrROS_Hall] | 1.78 ± 0.077 | 1.13 ± 0.077 | 1.48 ± 0.095
11 | SAGGSAGGSAGGKPKYKIVEIKYDKETKTVTLKIKLENGETVEITVPPGTSLEDILKALSAGGSAGGSAGGS [r10_984_TrROS_Hall] | 3.57 ± 0.098 | 3.9 ± 0.061 | 3.83 ± 0.055
12 | SAGGSAGGSAGGKPVKLEISFDKETNTITIKAVDEENKTVTETTIKVTFLPPPPPPPPKSAGGSAGGSAGGS [r10_331_TrROS_Hall] | 1.09 ± 0.12 | 2.14 ± 0.37 | 2.03 ± 0.48
13 | SAGGSAGGSAGGKRTLLIRVPPGASVEQVLEELKRLLPPGAKITVELDPETRTLRVTIDSAGGSAGGSAGGS [r10_163_TrROS_Hall] | 3.28 ± 0.075 | 4.12 ± 0.057 | 3.89 ± 0.12
14 | SAGGSAGGSAGGKRYRVTELEVVEVDGEKRLLVRFEDGRTQAFPAGAKISPDGAEIELLPSAGGSAGGSAGG [r7_931_TrROS_Hall] | 0.469 ± 0.042 | 1.44 ± 0.033 | 1.14 ± 0.04
15 | SAGGSAGGSAGGKSKTLRLYNKDTGVAVTVTLNEDGSLSVTVEPLPPPPPVEEKVVVKGSAGGSAGGSAGGS [r10_664_TrROS_Hall] | 0.527 ± 0.071 | 1.37 ± 0.13 | 1.03 ± 0.11
16 | SAGGSAGGSAGGKVAIVTASPEKAKEIAKKAGIKDVIIIPKNKPELLGPNVDKVILVAEKSAGGSAGGSAGG [r7_381_TrMRF] | -0.629 ± 0.066 | -1.94 ± 0.33 | < -1
17 | SAGGSAGGSAGGKVLKIKFSSIEEILEYIKNNDSVTIVVLDENDNPIGTITVEVKPGSLSAGGSAGGSAGGS [r10_193_TrMRF] | 1.67 ± 0.046 | 2.89 ± 0.039 | 2.5 ± 0.092
18 | SAGGSAGGSAGGKVTIEFPTSRVELYPLPGPFVLAEVSFPNRKLLALAHPDGDEILILPISAGGSAGGSAGG [r7_683_TrMRF] | 0.929 ± 0.028 | 1.05 ± 0.082 | 1.07 ± 0.042
19 | SAGGSAGGSAGGKVYFLPDNTVVYELPDGLYLAVTVNENGEPSRTLYRVLSPTEIKPFPLSAGGSAGGSAGG [r7_423_TrMRF] | 1.65 ± 0.024 | 1.66 ± 0.034 | 1.72 ± 0.035
20 | SAGGSAGGSAGGKWRPITFPFPDGWYLQIYMNPDGDVKAEIYNPDGKPVEKTFPPGEPIFSAGGSAGGSAGG [r7_215_TrROS] | 1.25 ± 0.027 | 1.67 ± 0.02 | 1.55 ± 0.054
